Values of other authors, collected in PMC3415683.

Target: Dll-1 DSL-EGF3 (Homo sapiens) (UniProt O00548)
Experiment: SPR

Chain of UniProt O00548 (O00548 177-325): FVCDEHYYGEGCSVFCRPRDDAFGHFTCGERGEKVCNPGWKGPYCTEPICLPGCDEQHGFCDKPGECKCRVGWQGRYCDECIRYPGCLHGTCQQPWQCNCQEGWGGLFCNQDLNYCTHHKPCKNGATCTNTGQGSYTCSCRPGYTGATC

Notch1 EGF11-14 (from UniProt P46531)
Kd: 130 µM
